Test results taken from patent US20040063790A1, “Methods for inhibition of angiogenesis” (The Scripps Research Institute, priority 1996, published 2004).

Experiments:
[1] = system: αvβ3-expressing CS-1 cells; experiment: Inhibition of cell attachment assay; assay type: cell-based, hamster
Procedure: As one means to determine integrin receptor specificity of the antagonists of this invention, inhibition of cell attachment assays were performed as described below.
Briefly, CS-1 hamster melanoma cells lacking expression of αvβ3 and αvβ5 were first transfected with an plasmid for expressing the […] as previously described by Filardo et al., J. Cell Biol., 130:441-450 (1995). Specificity of potential αvβ3 antagonists was determined by the ability to block the binding of αvβ3-expressing CS-1 cells to VN or laminin coated plates. As an example of a typical assay, the wells were first coated with 10 μg/ml substrate overnight. After rinsing and blocking with 1% heat-denatured BSA in PBS at room temperature for 30 minutes, peptide 85189 (SEQ ID NO: 15) over a concentration range of 0.0001 μM to 100 μM, was separately mixed with CS-1 cells for applying to wells with a cell number of 50, 000 cells/well. After a 10-15 minute incubation at 37° C., the solution containing the cells and peptides was discarded. The number of attached cells was then determined following staining with 1% crystal violet. Cell associated crystal violet was eluted by the addition of 100 microliters (μl) of 10% acetic acid. Cell adhesion was quantified by measuring the optical density of the eluted crystal violet at a wave length of 600 nm.

αIIbβ3 = molecular target: T1, αIIbβ3 (Homo sapiens, UniProt P05106+P08514); experiment: Solid phase receptor binding assay (iodinated MMP-2, labeled fusion proteins)
T1 construct: selected purified integrins were separately immobilized in Titertek microtiter wells

αvβ3 = molecular target: T2, αvβ3 (Homo sapiens, UniProt P05106+P06756); experiment: as above
T2 construct: selected purified integrins were separately immobilized in Titertek microtiter wells
Procedure: In addition, the ability of peptides to inhibit the binding of either MMP-2 or VN to immobilized αvβ3 was assessed with peptides 69601 (SEQ ID NO: 6) and 66203 (SEQ ID NO: 5).
Specificity of receptor interaction with MMP-2-derived antagonists was confirmed with binding and inhibition of binding solid phase assays. […] In addition, the binding of labeled GST2-4 was competed by unlabeled GST2-4.

[2] = system: bFGF-induced angiogenesis; experiment: CAM assay, growth factor-induced angiogenesis, intravenous application; assay type: in vivo, chick; conditions: 50 μg fusion protein; after 48 and 72 hours
Procedure: J. Pathol., 79:597 (1975). CAMs were prepared from chick embryos for subsequent induction of angiogenesis and inhibition thereof as described in Examples 4 and 5, respectively. Ten day old chick embryos were obtained from McIntyre Poultry (Lakeside, Calif.) and incubated at 37° C. with 60% humidity. A small hole was made through the shell at the end of the egg directly over the air sac with the use of a small crafts drill (Dremel, Division of Emerson Electric Co. Racine Wis.). A second hole was drilled on the broad side of the egg in a region devoid of embryonic blood vessels determined previously by candling the egg. […] A 1.0 centimeter (cm)×1.0 cm square window was cut through the shell over the dropped CAM with the use of a small model grinding wheel (Dremel). The small window allowed direct access to the underlying CAM.
Angiogenesis was induced by placing a 5 millimeter (mm)×5 mm Whatman filter disk (Whatman Filter paper No.1) saturated with Hanks Balanced Salt Solution (HBSS, GIBCO, Grand Island, N.Y.) or HBSS containing 150 nanograms/milliliter (ng/ml) recombinant basic fibroblast growth factor (bFGF) (Genzyme, Cambridge, Mass.) on the CAM of a 10-day chick embryo in a region devoid of blood vessels and the windows were latter sealed with tape. In other assays, 125 ng/ml bFGF was also effective at inducing blood vessel growth. For assays where inhibition of angiogenesis ws evaluated with intravenous injections of antagonists, angiogenesis was first induced with 1-2 μg/ml bFGF in fibroblast growth medium. Angiogenesis was monitored by photomicroscopy after 72 hours. CAMs were snap frozen, and 6 um cryostat sections were fixed with acetone and stained by immunofluorescence as described in Example 3C with 10 μg/ml of either anti-β1 monoclonal antibody CSAT or LM609.
For CAM preparations in which angiogenesis was induced with 1-2 μg/ml bFGF as previously described, synthetic peptides 69601 (control) and 66203 (SEQ ID NO: 5) were separately intravenously injected into CAM preparations 18 hours after bFGF induction of angiogenesis. The preparations were maintained for an additional 36-40 hours after which time the number of branch points were determined as previously described.
In other assays, peptide 85189 (SEQ ID NO: 15) was evaluated for inhibiting bFGF-induced angiogenesis in the CAM assay over a dosage range of 10 μg/embryo to 300 μg/embryo. The assay was performed as previously described.
In still further assays, peptide 85189 was compared to peptides 69601 and 66203 for anti-angiogenesis activity. The assay was performed as described above with the exception that 50 μg peptide were used.
The effectiveness of the different salt formulations of peptide 85189 was also evaluated in similar bFGF-induced CAM assays. The peptides were used at 100 μg/embryo. […] Untreated CAMs, labeled as “no cytokine” had approximately […] as many branch points as that seen with bFGF treatment, respectively 70 versus 190.
With the above-described protocol, the effect of MMP-2 fusion proteins, CTMMP-2(2-4), also referred to as CTMMP-2(445-467) and CTMMP-2(10-1), also referred to as CTMMP-2(274-637) was also evaluated. The assay was performed as previously described with the exception that 50 μg of fusion protein was administered to the bFGF-treated embryos. The effect of fusion protein treatment was assessed at 24 hours, 48 hours and 72 hours.
The 10 day old CAM preparation was used as previously described in Example 5A. Twenty-four hours after bFGF-induced angiogenesis was initiated, the organic peptidomimetics referred to as compounds 16 (81218), 17 (87292) and 18 (87293) were separately intravenously injected into the CAM preparation in a volume of 100 μl at a concentration of 1 mg/ml (100 μg/embryo) in 20% tetraglycol-PBS at pH 7.0. In parallel assays, compounds 7 (96112), 9 (99799), 10 (96229), 12 (112854) and 14 (96113) were similarly evaluated. […]

CS-1 tumor (β3-negative) = experiment: CS-1 tumor growth in CAM; assay type: in vivo, chick; conditions: 50 μg intravenously after 24 hours of tumor growth; mass after 6 days; versus CTMMP-2(10-1) or PBS
Procedure: A CS-1 tumor (β3-negative) was prepared in a CAM as described above. After 24 hours of tumor growth, a composition of MMP-2 fragment, designated CTMMP-2(2-4) and prepared as described in Example 2A, was administered intraveneously at 50 μg fragment in 100 μl of PBS. After 6 days, the tumor was evaluated for mass. Tumors treated with CTMMP-2(2-4) were reduced in growth rate by about 50% when compared to the growth rate of control tumors treated with CTMMP-2(10-1) or with PBS control.

T2 sequence (P06756 31-889 limits assumed): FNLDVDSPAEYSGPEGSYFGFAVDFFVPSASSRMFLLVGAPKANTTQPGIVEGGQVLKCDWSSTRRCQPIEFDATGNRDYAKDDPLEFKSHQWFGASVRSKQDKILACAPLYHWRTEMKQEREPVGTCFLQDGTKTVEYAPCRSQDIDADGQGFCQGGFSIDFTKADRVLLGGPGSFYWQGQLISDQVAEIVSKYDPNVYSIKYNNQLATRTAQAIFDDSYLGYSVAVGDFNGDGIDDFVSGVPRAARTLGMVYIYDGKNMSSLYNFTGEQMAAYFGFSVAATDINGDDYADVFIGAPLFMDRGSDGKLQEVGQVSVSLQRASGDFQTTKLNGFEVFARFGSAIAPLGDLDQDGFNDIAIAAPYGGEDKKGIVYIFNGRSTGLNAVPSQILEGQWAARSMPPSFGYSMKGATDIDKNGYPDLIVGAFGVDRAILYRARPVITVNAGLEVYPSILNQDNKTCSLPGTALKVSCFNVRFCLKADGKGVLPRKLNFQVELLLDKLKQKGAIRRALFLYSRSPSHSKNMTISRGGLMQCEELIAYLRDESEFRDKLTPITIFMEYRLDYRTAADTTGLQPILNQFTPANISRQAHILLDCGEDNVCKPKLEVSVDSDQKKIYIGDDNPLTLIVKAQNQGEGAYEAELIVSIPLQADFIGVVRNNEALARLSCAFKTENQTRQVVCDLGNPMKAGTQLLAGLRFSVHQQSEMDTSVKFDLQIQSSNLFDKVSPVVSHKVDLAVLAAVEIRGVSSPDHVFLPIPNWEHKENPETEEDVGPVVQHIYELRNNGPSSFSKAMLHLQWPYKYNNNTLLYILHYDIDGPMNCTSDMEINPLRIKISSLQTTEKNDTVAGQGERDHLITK
T2 sequence (P06756 891-1048 partner limits assumed): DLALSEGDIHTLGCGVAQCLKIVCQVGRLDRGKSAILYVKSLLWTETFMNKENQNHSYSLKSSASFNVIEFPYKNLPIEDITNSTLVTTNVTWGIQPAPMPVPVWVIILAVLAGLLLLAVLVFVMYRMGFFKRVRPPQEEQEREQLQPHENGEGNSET
T2 sequence (P05106 27-788): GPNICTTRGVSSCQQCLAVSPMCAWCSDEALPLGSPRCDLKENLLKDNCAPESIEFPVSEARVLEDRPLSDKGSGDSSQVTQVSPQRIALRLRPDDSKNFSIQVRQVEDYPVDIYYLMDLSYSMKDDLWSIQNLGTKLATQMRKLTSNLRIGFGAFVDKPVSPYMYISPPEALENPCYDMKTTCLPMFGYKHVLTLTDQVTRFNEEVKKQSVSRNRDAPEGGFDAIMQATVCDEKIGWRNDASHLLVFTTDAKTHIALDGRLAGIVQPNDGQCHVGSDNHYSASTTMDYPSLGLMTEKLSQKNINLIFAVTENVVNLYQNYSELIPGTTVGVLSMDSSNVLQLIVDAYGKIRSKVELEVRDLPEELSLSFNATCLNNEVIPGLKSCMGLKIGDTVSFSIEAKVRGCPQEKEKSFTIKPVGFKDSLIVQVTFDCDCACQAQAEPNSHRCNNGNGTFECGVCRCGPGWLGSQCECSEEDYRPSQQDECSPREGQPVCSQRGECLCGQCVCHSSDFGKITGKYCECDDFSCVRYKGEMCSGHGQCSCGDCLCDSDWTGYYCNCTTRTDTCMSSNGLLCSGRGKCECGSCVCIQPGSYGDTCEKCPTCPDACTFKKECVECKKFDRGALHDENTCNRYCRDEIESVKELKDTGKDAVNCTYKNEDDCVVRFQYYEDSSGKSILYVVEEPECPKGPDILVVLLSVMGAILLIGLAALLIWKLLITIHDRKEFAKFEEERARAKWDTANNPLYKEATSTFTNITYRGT

| Molecule | inhibition of β3-expressing CS-1 cell adhesion to laminin [1] | inhibition of β3-expressing CS-1 cell adhesion to vitronectin [1] | bound iodinated MMP-2 on immobilized αIIbβ3 (αIIbβ3) | bound iodinated MMP-2 on immobilized αvβ3 (αvβ3) [cpm] | inhibition of bFGF-induced angiogenesis by fusion protein [2] | reduction in tumor growth rate (CS-1 tumor (β3-negative)) | competition of labeled GST2-4 binding by unlabeled protein (αvβ3) | inhibition of binding of iodinated MMP-2 to αvβ3 (αvβ3; FIG. 8) | binding of 125I-labeled fusion protein to αvβ3 (αvβ3; FIG. 9) |
| --- | --- | --- | --- | --- | --- | --- | --- | --- | --- |
| MMP-2: matrix metalloproteinase-2, intact protein (protein) APSPIIKFPGDSTPKTDKELAVQYLNKYYGCPKDNCNLFVLKDTLKKMQKFFGLPETGDLDQNTIETMKKPRCGNPDVANYNFFPRKPKWEKNHITYRIIGYTPDLDPETVDDAFARAFKVWSDVTPLRFNRINDGEADIMINFGRWEHGDGYPFDGKDGLLAHAFAPGPGIGGDSHFDDDELWTLGEGQVVRVKYGNADGEYCKFPFWFNGKEYNSCTDAGRNDGFLWCSTTKDFDADGKYGFCPHESLFTMGGNGDGQPCKFPFKFQGQSYDQCTTEGRTDGYRWCGTTEDYDRDKKYGFCPETAMSTVGGNSEGAPCVFPFIFLGNKYDSCTSAGRNDGKLWCASTSSYDDDRKWGFCPDQGYSLFLVAAHEFGHAMGLEHSEDPGALMAPIYTYTKNFRLSQDDIKGIQELYEVSPDVEPGPGPGPGPGPRPTLGPVTPELCKHDIVFDGVAQIRGEIFFFKDRFMWRTVNPRGKPTGPLLVATFWPDLPEKIDAVYESPQDEKAVFFAGNEYWVYTASNLDRGYPKKLTSLGLPPDVQRIDAAFNWGRNKKTYIFSGDRYWKYNEEKKKMELATPKFIADSWNGVPDNLDAVLGLTDSGYTYFFKDQYYLQMEDKSLKIVKIGKISSDWLGC | but not laminin | inhibited | approximately 10 CPM | 300 | – | – | – | – | – |
| CTMMP-2(2-4): GST fusion protein of chicken MMP-2 C-terminal residues 445-637 (protein, left off: a dimerising Fc or GST) LCKHDIVFDGVAQIRGEIFFFKDRFMWRTVNPRGKPTGPLLVATFWPDLPEKIDAVYESPQDEKAVFFAGNEYWVYTASNLDRGYPKKLTSLGLPPDVQRIDAAFNWGRNKKTYIFSGDRYWKYNEEKKKMELATPKFIADSWNGVPDNLDAVLGLTDSGYTYFFKDQYYLQMEDKSLKIVKIGKISSDWLGC | but not laminin | inhibited | – | – | almost completely inhibited | about 50% | competed | inhibited the binding of iodinated MMP-2 | bound |
